From patent publication US7488590B2, “Modified peptides as therapeutic agents” (Amgen Inc., priority 1998, dated 2009)
Where “and” joins values, the source holds several entries; their conditions need not be identical. Identical values can stand only once. Entries after “also recorded” stand apart in the source; their conditions may differ. Where no end group is shown, it is not given here. Side-chain parts run from the residue outwards. maleimide = maleimide-containing PEG attached to the Cys side-chain thiol; PEG = not defined here

How the values were obtained:
human mpl receptor = biological target: T1, human mpl receptor (Homo sapiens, UniProt P40238); assay: TPO in vitro bioassay: mitogenic (cell-proliferation) assay in IL-3 dependent murine 32D cells transfected with human mpl receptor; type: cell-based
T1 construct: murine 32D cells transfected with the full-length c-Mpl; expressed in transfected cells; host or cells: IL-3 dependent clone of murine 32D cells
T1 sequence (P40238 26-635): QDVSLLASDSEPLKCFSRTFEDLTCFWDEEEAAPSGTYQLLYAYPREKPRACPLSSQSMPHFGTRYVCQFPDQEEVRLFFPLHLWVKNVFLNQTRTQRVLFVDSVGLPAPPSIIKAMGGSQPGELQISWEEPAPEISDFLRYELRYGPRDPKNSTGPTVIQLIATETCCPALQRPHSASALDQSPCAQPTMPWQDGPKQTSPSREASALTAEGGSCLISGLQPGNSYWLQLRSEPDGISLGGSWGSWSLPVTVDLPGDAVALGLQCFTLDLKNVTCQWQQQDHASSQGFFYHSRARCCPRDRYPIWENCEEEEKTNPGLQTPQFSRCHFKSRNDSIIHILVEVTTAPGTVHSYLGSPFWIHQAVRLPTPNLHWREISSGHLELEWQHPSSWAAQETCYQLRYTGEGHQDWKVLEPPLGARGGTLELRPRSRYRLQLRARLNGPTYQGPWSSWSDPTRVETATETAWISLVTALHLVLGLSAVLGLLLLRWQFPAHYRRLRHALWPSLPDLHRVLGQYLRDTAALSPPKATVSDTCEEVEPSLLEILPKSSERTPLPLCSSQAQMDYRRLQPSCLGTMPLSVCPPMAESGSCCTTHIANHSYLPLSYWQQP
Description: Bioactivity assay. The TPO in vitro bioassay is a mitogenic assay utilizing an IL-3 dependent clone of murine 32D cells that have been transfected with human mpl receptor. This assay is described in greater detail in WO 95/26746. Cells are maintained in MEM medium containing 10% Fetal Clone II and 1 ng/ml mIL-3. Prior to sample addition, cells are prepared by rinsing twice with growth medium lacking mIL-3. An extended twelve point TPO standard curve is prepared, ranging from […]. Four dilutions, estimated to fall within the linear portion of the standard curve, (100 to 125 pg/ml), are prepared for each sample and run in triplicate. A volume of 100 μl of each dilution of sample or standard is added to appropriate wells of a 96 well microtiter plate containing 10,000 cells/well. After forty-four hours at 37° C. and 10% CO2, MTS (a tetrazolium compound which is bioreduced by cells to a formazan) is added to each well. Approximately six hours later, the optical density is read on a plate reader at 490 nm. A dose response curve (log TPO concentration vs. O.D.-Background) is generated and linear regression analysis of points which fall in the linear portion of the standard curve is performed. Concentrations of unknown test samples are determined using the resulting linear equation and a correction for the dilution factor.
The resulting peptides are readily accessible by conventional solid phase peptide synthesis methods (Merrifield (1963), J. Amer. Chem. Soc. 85: 2149) with either Fmoc or t-Boc chemistry. […] This might be due to differences in the conditions used in the two assays. […] It is interesting to note that a wide range of length is tolerated by the linker. The optimal linker between tandem peptides with the selected TMP monomers apparently is composed of 8 glycines.

IL-1R = biological target: T2, IL-1R (Homo sapiens, UniProt P14778); assay: IL-1 Receptor Binding competition assay (IGEN system); conditions: 0.4 nM biotin-IL-1R + 15 nM IL-1-TAG, competitor 3 uM to 1.5 pM
T2 sequence (P14778 18-569): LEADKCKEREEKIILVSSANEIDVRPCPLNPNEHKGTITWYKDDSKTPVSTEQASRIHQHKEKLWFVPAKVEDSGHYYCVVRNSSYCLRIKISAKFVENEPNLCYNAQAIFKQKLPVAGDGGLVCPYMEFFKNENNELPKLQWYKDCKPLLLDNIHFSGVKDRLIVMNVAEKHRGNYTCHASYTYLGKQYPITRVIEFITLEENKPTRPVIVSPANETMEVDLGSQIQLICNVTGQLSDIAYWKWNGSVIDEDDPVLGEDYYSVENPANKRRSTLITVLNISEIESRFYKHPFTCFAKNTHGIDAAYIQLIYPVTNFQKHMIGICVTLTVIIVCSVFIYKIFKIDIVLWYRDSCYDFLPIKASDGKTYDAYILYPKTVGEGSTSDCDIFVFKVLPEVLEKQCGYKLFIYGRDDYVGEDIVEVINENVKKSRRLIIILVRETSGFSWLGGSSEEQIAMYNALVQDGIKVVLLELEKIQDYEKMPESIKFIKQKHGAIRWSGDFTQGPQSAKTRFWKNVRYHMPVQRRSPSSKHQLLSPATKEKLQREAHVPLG
Description: Characterization of Fc-IL-1 antagonist peptide and IL-1 antagonist peptide-Fc activity. IL-1 Receptor Binding competition between IL-1β, IL-1RA and Fc-conjugated IL-1 peptide sequences was carried out using the IGEN system. Reactions contained 0.4 nM biotin-IL-1R+15 nM IL-1-TAG+3 uM competitor+20 ug/ml streptavidin-conjugate beads, where competitors were IL-1RA, Fc-IL-1 antagonist, IL-1 antagonist-Fc). Competition was assayed over a range of competitor concentrations from 3 uM to 1.5 pM.

[1] = TPO-dependent cell-proliferation assay, 32D cells transfected with c-Mpl

Substance | in vitro bioactivity (in words) (human mpl receptor; [1]) | other results
peptide 16: TMP tandem repeat in which the two Trp residues were replaced by Ala (IEGPTLRQWLAARAGGGGGGGGIEGPTLRQWLAARA; TPO-MIMETIC PEPTIDES) | inactive | –
IL-1RA: competitor in the IL-1 receptor binding competition assay | – | EC50 (IL-1R): 2.65 nM; Ki (IL-1R): 1.41 nM
IEGPTLRQWLAARA (TMP) [reference compound] | relatively low biopotency | –
21: TMP tandem repeat with potential glycosylation motif NGS in its 8-amino acid linker (IEGPTLRQWLAARAGGGNGSGGIEGPTLRQWLAARA; TPO-MIMETIC PEPTIDES) [compound 21] | maintained high bioactivity; also recorded: activity comparable to that of the —(G)8— linked analog | –
peptide 20: PEGylated peptide (SEQ ID NO: 4); Cys side chain in linker modified by maleimide-containing PEG (IEGPTLRQWLAARAGGGC([maleimide-PEG])GGGGIEGPTLRQWLAARA; reading uncertain) | even higher in vitro bioactivity as compared to their unpegylated counterparts | –
peptide 13: TMP tandem repeat with a linker composed of GPNG (IEGPTLRQWLAARAGPNGIEGPTLRQWLAARA; TPO-MIMETIC PEPTIDES) | – | increase in potency as compared to the monomer (human mpl receptor; TPO-dependent cell-proliferation assay, 32D cells transfected with c-Mpl, versus TMP monomer): about 100 fold; decrease in activity versus the equivalent GGGG-linked analog (human mpl receptor; cell-proliferation assay, versus tandem repeat with 4-Gly linker): > 10 fold and 10 fold
peptide 19: PEGylated peptide (SEQ ID NO: 3); Lys side chain in linker modified by 5 kDa PEG (IEGPTLRQWLAARAGGGK(PEG 5 kDa)GGGGIEGPTLRQWLAARA) | even higher in vitro bioactivity as compared to their unpegylated counterparts | –
